One data set can be described thus: in vivo. The settings on record: female, BALB/c, mouse, iv, total radioactivity. How it is done:
(§1) 4T1 orthotopic BALB/c mouse model. The cells were removed from the flasks, concentrated, and resuspended in minimal media for cell counting. The cells were then diluted to contain approximately 1 million cells in 30 μL of media (for orthotopic allografts). Following an MSKCC Institutional Animal Care and Use Committee approved protocol, 8-10 week old BALB/c mice (Charles River Laboratories, Wilmington, MA) were surgically implanted with one million 4T1 cancer cells into the first or the last mammary fat pad of the right side of the animal using aseptic surgical techniques and sterile staple closures while the mice were under anesthetic. Additionally, mice were given injections of meloxicam (24 h pain killer) in the scruff and bupivacaine intradermally prior to surgical incisions. One day post surgery, the mice were again given meloxicam and checked to ensure that the closure was healing. Two and three days post surgery, the mice were checked to ensure that the animals were healthy and recovering well from the surgery. Five to seven days post surgery, the staples were removed. Five to nine days post surgery, the mice were injected with 50-75 μCi (0.9-0.4 nmol) of the respective radiopharmaceutical for in vivo biodistribution or 500-600 μCi (9-11 nmol) for in vivo imaging. The mice receiving ^64Cu-NOTA-pHLIP were sacrificed at 1, 2, 4, 12, 24, 36, and 48 h; the mice receiving [^18F]—AlF-NOTA-pHLIP were sacrificed at 0.5, 1, 2, 4, 6 and 8 h. The 4T1 tumors in this study were purposely used 5-9 days after inoculation to ensure lower tumoral pH. Animal models. Animal studies were conducted according to MSKCC IACUC-approved animal protocol. 4T1 (orthotopic breast cancer allografts of 1×10^6 cells surgically implanted in the mammary fat pad) and B16-F10 (orthotopic melanoma allografts of 1×10^5 cells injected intradermally on the shoulder) tumors were orthotopically inoculated in media in female BALB/c and C57Bl/6 mice (Charles River Laboratories (CRL)), respectively. Additionally, PC3 (3×10^6 cells) or LNCaP (3-6×10^6 cells) tumors were subcutaneously xenografted on the shoulder of athymic nude male mice (CRL). Mice were used once tumor volumes were approximately 90-300 mm^3. In vivo animal PET imaging and biodistribution. Mice were injected with radiolabeled NOTA-pHLIP derivatives i.v. (500-700 μCi/mouse for PET or SPECT imaging studies and 25-100 μCi/mouse for biodistribution studies). All injections were less than 200 μL with <10% EtOH in sterile PBS. PET images were obtained with the mice under anesthesia in an Inveon PET-CT or microPET Focus 120 (Siemens) at 0.5-48 h p.i. All images were analyzed using ASIPro VM (Concorde Microsystems). SPECT images were obtained with the mice under anesthesia in a NanoSPECT/CT Plus at 4-24 h p.i. All SPECT images were reconstructed using HiSPECT and analyzed using InVivoScope. Dissections for ex vivo biodistribution were performed on mice after CO2 asphyxiation or cervical dislocation while anesthetized at reported time points. Weight of the syringe prior to injection and after injection was used to determine the mass of injectate. Activity of the syringe prior to injection and after injection was used to determine the percent of injectate administered. The mass injected was corrected by the percent of radioactivity injected. Four to five aliquots (10 μL) were weighed and counted as internal standards for each study. All of the collected organs were counted using an automatic gamma counter (Wizard 3″, PerkinElmer, Waltham, MA). The total injected dose was found as the mass injected dose×fraction radioactivity injected×internal standard average counts/g. The percent injected dose (% ID) was determined as the counts for the tissue×100/total injected dose. The % ID/g was calculated as the % ID/tissue weight. The average and standard deviation of the % ID and % ID/g was determined using normal methods (n−1) for each set of mice.

The subject of data set [1] is 4T1 orthotopic tumor-bearing BALB/c mice. Put plainly: in vivo. The settings on record: mouse; for biodistribution, Blood / biodistribution, Bone / biodistribution, Brain / biodistribution, Heart / biodistribution, Kidneys / biodistribution, L. intestine / biodistribution, Liver / biodistribution, Lungs / biodistribution, Muscle / biodistribution, Pancreas / biodistribution, S. intestine / biodistribution, Skin / biodistribution, Spleen / biodistribution, Stomach / biodistribution, Tumor (4T1 tumoral uptake): iv, 4 h. Here is the method: as §1

The term tissue uptake denotes the share of the injected amount in each gram of the tissue.

Turning to `CC(C)C[C@@H](NC(=O)[C@@H](CC(C)C)NC(=O)[C@@H](CC(=O)O)NC(=O)[C@@H](CC(C)C)NC(=O)[C@@H](CC(C)C)NC(=O)[C@@H](CC(C)C)NC(=O)[C@H](NC(=O)[C@@H](CC(=O)O)NC(=O)[C@H](NC(=O)[C@H]1CCCN1C(=O)[C@@H](Cc1ccccc1)NC(=O)[C@@H](CC(C)C)NC(=O)[C@@H](CC(C)C)NC(=O)[C@@H](CC(=O)O)NC(=O)[C@@H](CC(C)C)NC(=O)[C@@H](Cc1ccc(O)cc1)NC(=O)[C@@H](C)NC(=O)[C@@H](CCCNC(=N)N)NC(=O)[C@@H](Cc1c[nH]c2ccccc12)NC(=O)[C@H]1CCCN1C(=O)[C@@H](CC(N)=O)NC(=O)[C@@H](CCC(N)=O)NC(=O)[C@@H](CC(=O)O)NC(=O)[C@@H](CC(=O)O)NC(=O)[C@@H](CS)NC(=O)[C@@H](C)NC(=S)Nc1ccc(CC2CN(CC(=O)O)CCN(CC(=O)O)CCN2CC(=O)O)cc1)[C@H](C)O)[C@H](C)O)C(=O)N[C@H](Cc1c[nH]c2ccccc12)C(=O)O` (single isomer, unassigned) [^67Ga-NOTA-Var3, metal not drawn], the tissue uptake at 24 h in “in vivo” (50 uCi, 4T1 tumoral uptake) is 2.93 ± 0.11 %ID/g. Besides, the tissue uptake at 4 h in “in vivo” (biodistribution, Tumor (4T1 tumoral uptake)) is 2.05 ± 0.17 %ID/g.
In the case of `CC(C)C[C@@H](NC(=O)[C@@H](CC(C)C)NC(=O)[C@@H](CC(=O)O)NC(=O)[C@@H](CC(C)C)NC(=O)[C@@H](CC(C)C)NC(=O)[C@@H](CC(C)C)NC(=O)[C@H](NC(=O)[C@@H](CC(=O)O)NC(=O)[C@H](NC(=O)[C@H]1CCCN1C(=O)[C@@H](Cc1ccccc1)NC(=O)[C@@H](CC(C)C)NC(=O)[C@@H](CC(C)C)NC(=O)[C@@H](CC(=O)O)NC(=O)[C@@H](CC(C)C)NC(=O)[C@@H](Cc1ccc(O)cc1)NC(=O)[C@@H](C)NC(=O)[C@@H](CCCNC(=N)N)NC(=O)[C@@H](Cc1c[nH]c2ccccc12)NC(=O)[C@H]1CCCN1C(=O)[C@@H](CC(N)=O)NC(=O)[C@@H](CCC(N)=O)NC(=O)[C@@H](CC(=O)O)NC(=O)[C@@H](CC(=O)O)NC(=O)[C@@H](CS)NC(=O)[C@@H](C)NC(=S)Nc1ccc(CC2CN(CC(=O)O)CCN(CC(=O)O)CCN2CC(=O)O)cc1)[C@H](C)O)[C@H](C)O)C(=O)N[C@H](Cc1c[nH]c2ccccc12)C(=O)O` (single isomer, unassigned) [^64Cu-NOTA-Var3, metal not drawn], in data set [1], the “biodistribution, Blood” value stood at 1.371 ± 0.244 % ID/g; the “biodistribution, Bone” value is 0.339 ± 0.018 % ID/g; the “biodistribution, Brain” value is listed as 0.063 ± 0.011 % ID/g; the “biodistribution, Heart” value is 0.49 ± 0.05 % ID/g. Moreover, in data set [1], the “biodistribution, Kidneys” value stood at 7.165 ± 1.126 % ID/g; the “biodistribution, L. intestine” value is 7.45 ± 2.73 % ID/g; the “biodistribution, Liver” value was 1.034 ± 0.150 % ID/g; the “biodistribution, Lungs” value worked out at 1.420 ± 0.117 % ID/g. Further, in data set [1], the “biodistribution, Muscle” value turned out to be 0.171 ± 0.017 % ID/g; the “biodistribution, Pancreas” value is on record as 0.279 ± 0.041 % ID/g; the “biodistribution, S. intestine” value is 0.320 ± 0.042 % ID/g; the “biodistribution, Skin” value is 0.775 ± 0.102 % ID/g. For the same compound, in data set [1], the “biodistribution, Spleen” value came out at 0.340 ± 0.032 % ID/g; the “biodistribution, Stomach” value is reported as 0.194 ± 0.050 % ID/g; the “biodistribution, Tumor (4T1 tumoral uptake)” value (shortened to “biodistribution, Tumor”) was found to be 0.649 ± 0.091 % ID/g.
Take `CC(C)C[C@@H](NC(=O)[C@@H](CCC(=O)O)NC(=O)[C@@H](CC(C)C)NC(=O)[C@@H](CC(C)C)NC(=O)[C@@H](CC(C)C)NC(=O)[C@H](NC(=O)[C@@H](CCC(=O)O)NC(=O)[C@H](NC(=O)[C@H]1CCCN1C(=O)[C@@H](Cc1ccccc1)NC(=O)[C@@H](CC(C)C)NC(=O)[C@@H](Cc1c[nH]c2ccccc12)NC(=O)[C@@H](CCC(=O)O)NC(=O)[C@@H](CC(C)C)NC(=O)[C@@H](Cc1ccc(O)cc1)NC(=O)[C@@H](CCCNC(=N)N)NC(=O)[C@@H](C)NC(=O)[C@@H](Cc1c[nH]c2ccccc12)NC(=O)[C@H]1CCCN1C(=O)[C@@H](CC(N)=O)NC(=O)[C@@H](CCC(N)=O)NC(=O)[C@@H](CCC(=O)O)NC(=O)[C@@H](CCC(=O)O)NC(=O)[C@@H](CS)NC(=O)[C@@H](C)NC(=S)Nc1ccc(CC2CN(CC(=O)O)CCN(CC(=O)O)CCN2CC(=O)O)cc1)[C@H](C)O)[C@H](C)O)C(=O)O` (single isomer, unassigned) [[^18F]—AlF-NOTA-Var7]: in data set [1], the kidneys-to-large intestine ratio was 0.55±0.19; the “biodistribution, Blood” value was 2.292 ± 0.277 % ID/g; the “biodistribution, Bone” value is recorded as 0.571 ± 0.202 % ID/g; the “biodistribution, Brain” value is recorded as 0.118 ± 0.011 % ID/g. In addition, in data set [1], the “biodistribution, Heart” value is 0.78 ± 0.06 % ID/g; the “biodistribution, Kidneys” value amounted to 7.759 ± 0.658 % ID/g; the “biodistribution, L. intestine” value was determined as 22.08 ± 6.02 % ID/g; the “biodistribution, Liver” value was found to be 1.089 ± 0.066 % ID/g. For the same compound, in data set [1], the “biodistribution, Lungs” value was 2.325 ± 0.212 % ID/g; the “biodistribution, Muscle” value is listed as 0.325 ± 0.073 % ID/g; the “biodistribution, Pancreas” value amounted to 0.373 ± 0.051 % ID/g; the “biodistribution, S. intestine” value was 0.776 ± 0.196 % ID/g. Besides, in data set [1], the “biodistribution, Skin” value was 1.377 ± 0.148 % ID/g; the “biodistribution, Spleen” value amounted to 0.485 ± 0.029 % ID/g; the “biodistribution, Stomach” value is 0.593 ± 0.153 % ID/g; the “biodistribution, Tumor” value is 1.105 ± 0.125 % ID/g.
For `CC(C)C[C@@H](NC(=O)[C@@H](CC(C)C)NC(=O)[C@@H](CC(=O)O)NC(=O)[C@@H](CC(C)C)NC(=O)[C@@H](CC(C)C)NC(=O)[C@@H](CC(C)C)NC(=O)[C@H](NC(=O)[C@@H](CC(=O)O)NC(=O)[C@H](NC(=O)[C@H]1CCCN1C(=O)[C@@H](Cc1ccccc1)NC(=O)[C@@H](CC(C)C)NC(=O)[C@@H](CC(C)C)NC(=O)[C@@H](CC(=O)O)NC(=O)[C@@H](CC(C)C)NC(=O)[C@@H](Cc1ccc(O)cc1)NC(=O)[C@@H](C)NC(=O)[C@@H](CCCNC(=N)N)NC(=O)[C@@H](Cc1c[nH]c2ccccc12)NC(=O)[C@H]1CCCN1C(=O)[C@@H](CC(N)=O)NC(=O)[C@@H](CCC(N)=O)NC(=O)[C@@H](CC(=O)O)NC(=O)[C@@H](CC(=O)O)NC(=O)[C@@H](CS)NC(=O)[C@@H](C)NC(=S)Nc1ccc(CC2CN(CC(=O)O)CCN(CC(=O)O)CCN2CC(=O)O)cc1)[C@H](C)O)[C@H](C)O)C(=O)N[C@H](Cc1c[nH]c2ccccc12)C(=O)O` (single isomer, unassigned) [[^18F]—AlF-NOTA-Var3], in data set [1], the kidneys-to-large intestine ratio turned out to be 0.52±0.15; the “biodistribution, Blood” value worked out at 2.201 ± 0.374 % ID/g; the “biodistribution, Bone” value is reported as 0.540 ± 0.119 % ID/g; the “biodistribution, Brain” value is 0.107 ± 0.023 % ID/g. In data set [1], the “biodistribution, Heart” value worked out at 0.78 ± 0.08 % ID/g; the “biodistribution, Kidneys” value is 8.237 ± 1.106 % ID/g; the “biodistribution, L. intestine” value stood at 22.05 ± 2.46 % ID/g; the “biodistribution, Liver” value was 0.923 ± 0.153 % ID/g. Moreover, in data set [1], the “biodistribution, Lungs” value is reported as 2.217 ± 0.380 % ID/g; the “biodistribution, Muscle” value amounted to 0.282 ± 0.055 % ID/g; the “biodistribution, Pancreas” value is listed as 0.332 ± 0.020 % ID/g; the “biodistribution, S. intestine” value is given as 0.927 ± 0.152 % ID/g. Moreover, in data set [1], the “biodistribution, Skin” value worked out at 1.126 ± 0.115 % ID/g; the “biodistribution, Spleen” value worked out at 0.469 ± 0.093 % ID/g; the “biodistribution, Stomach” value is 0.482 ± 0.223 % ID/g; the “biodistribution, Tumor” value came to 0.923 ± 0.119 % ID/g.

For the origin of these results see patent US12551583B2, “Radiolabeled ligands for targeted PET/SPECT imaging and methods of their use” (MEMORIAL SLOAN KETTERING CANCER CENTER, priority 2016, dated 2026).
